Measured values: IntAct's records for PubMed 31515488

B1: E3 ubiquitin-protein ligase CCNB1IP1 (Homo sapiens), Q9NPC3 (parent)
chain: MSLCEDMLLCNYRKCRIKLSGYAWVTACSHIFCDQHGSGEFSRSPAICPACNSTLSGKLDIVRTELSPSEEYKAMVLAGLRPEIVLDISSRALAFWTYQVHQERLYQEYNFSKAEGHLKQMEKIYTQQIQSKDVELTSMKGEVTSMKKVLEEYKKKFSDISEKLMERNRQYQKLQGLYDSLRLRNITIANHEGTLEPSMIAQSGVLGFPLGNNSKFPLDNTPVRNRGDGDGDFQFRPFFAGSPTAPEPSNSFFSFVSPSRELEQQQVSSRAFKVKRI
partner: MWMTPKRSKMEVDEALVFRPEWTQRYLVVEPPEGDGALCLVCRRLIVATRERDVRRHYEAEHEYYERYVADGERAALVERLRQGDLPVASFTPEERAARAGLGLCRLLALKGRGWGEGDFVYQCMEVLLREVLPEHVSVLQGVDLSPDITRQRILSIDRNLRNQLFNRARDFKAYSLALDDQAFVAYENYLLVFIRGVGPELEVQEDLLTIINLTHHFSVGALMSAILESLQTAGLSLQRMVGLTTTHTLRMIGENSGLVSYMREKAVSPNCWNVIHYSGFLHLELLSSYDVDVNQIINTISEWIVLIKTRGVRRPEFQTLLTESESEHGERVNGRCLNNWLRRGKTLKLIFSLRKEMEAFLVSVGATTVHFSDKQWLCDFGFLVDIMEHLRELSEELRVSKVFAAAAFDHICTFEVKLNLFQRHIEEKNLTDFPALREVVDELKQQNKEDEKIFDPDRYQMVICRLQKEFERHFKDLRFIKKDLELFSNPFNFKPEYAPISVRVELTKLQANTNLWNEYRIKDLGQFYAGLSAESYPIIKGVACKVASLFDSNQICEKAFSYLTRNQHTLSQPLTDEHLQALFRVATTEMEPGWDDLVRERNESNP
B2: Protein LDOC1 (Homo sapiens), O95751 (parent)
chain: MVDELVLLLHALLMRHRALSIENSQLMEQLRLLVCERASLLRQVRPPSCPVPFPETFNGESSRLPEFIVQTASYMLVNENRFCNDAMKVAFLISLLTGEAEEWVVPYIEMDSPILGDYRAFLDEMKQCFGWDDDEDDDDEEEEDDY
partner: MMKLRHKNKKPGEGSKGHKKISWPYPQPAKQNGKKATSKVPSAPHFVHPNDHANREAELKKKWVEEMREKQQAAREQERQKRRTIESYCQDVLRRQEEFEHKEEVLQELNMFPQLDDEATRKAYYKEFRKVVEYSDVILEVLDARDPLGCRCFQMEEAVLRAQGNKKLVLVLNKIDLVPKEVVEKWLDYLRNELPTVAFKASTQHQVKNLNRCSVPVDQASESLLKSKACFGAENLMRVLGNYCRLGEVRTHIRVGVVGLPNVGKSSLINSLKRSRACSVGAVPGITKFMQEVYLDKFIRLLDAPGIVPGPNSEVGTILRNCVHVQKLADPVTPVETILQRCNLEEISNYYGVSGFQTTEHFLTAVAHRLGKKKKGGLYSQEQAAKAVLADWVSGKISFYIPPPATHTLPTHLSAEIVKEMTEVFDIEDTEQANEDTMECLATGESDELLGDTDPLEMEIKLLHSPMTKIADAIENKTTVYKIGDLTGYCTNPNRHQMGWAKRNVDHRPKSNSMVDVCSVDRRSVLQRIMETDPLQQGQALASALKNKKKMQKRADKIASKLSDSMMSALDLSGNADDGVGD
B3: WD repeat domain-containing protein 83 (Homo sapiens), Q9BRX9 (parent)
chain: MAFPEPKPRPPELPQKRLKTLDCGQGAVRAVRFNVDGNYCLTCGSDKTLKLWNPLRGTLLRTYSGHGYEVLDAAGSFDNSSLCSGGGDKAVVLWDVASGQVVRKFRGHAGKVNTVQFNEEATVILSGSIDSSIRCWDCRSRRPEPVQTLDEARDGVSSVKVSDHEILAGSVDGRVRRYDLRMGQLFSDYVGSPITCTCFSRDGQCTLVSSLDSTLRLLDKDTGELLGEYKGHKNQEYKLDCCLSERDTHVVSCSEDGKVFFWDLVEGALALALPVGSGVVQSLAYHPTEPCLLTAMGGSVQCWREEAYEAEDGAG
B4: Protein BANP (Homo sapiens), Q8N9N5 (parent)
chain: MMSEHDLADVVQIAVEDLSPDHPVVLENHVVTDEDEPALKRQRLEINCQDPSIKTICLRLDSIEAKLQALEATCKSLEEKLDLVTNKQHSPIQVPMVAGSPLGATQTCNKVRCVVPQTTVILNNDRQNAIVAKMEDPLSNRAPDSLENVISNAVPGRRQNTIVVKVPGQEDSHHEDGESGSEASDSVSSCGQAGSQSIGSNVTLITLNSEEDYPNGTWLGDENNPEMRVRCAIIPSDMLHISTNCRTAEKMALTLLDYLFHREVQAVSNLSGQGKHGKKQLDPLTIYGIRCHLFYKFGITESDWYRIKQSIDSKCRTAWRRKQRGQSLAVKSFSRRTPNSSSYCPSEPMMSTPPPASELPQPQPQPQALHYALANAQQVQIHQIGEDGQVQVGHLHIAQVPQGEQVQITQDSEGNLQIHHVGQDGQLLEATRIPCLLAPSVFKASSGQVLQGAQLIAVASSDPAAAGVDGSPLQGSDIQVQYVQLAPVSDHTAGAQTAEALQPTLQPEMQLEHGAIQIQ
B5: Serine/threonine-protein kinase PAK 5 (Homo sapiens), Q9P286 (parent)
chain: MFGKKKKKIEISGPSNFEHRVHTGFDPQEQKFTGLPQQWHSLLADTANRPKPMVDPSCITPIQLAPMKTIVRGNKPCKETSINGLLEDFDNISVTRSNSLRKESPPTPDQGASSHGPGHAEENGFITFSQYSSESDTTADYTTEKYREKSLYGDDLDPYYRGSHAAKQNGHVMKMKHGEAYYSEVKPLKSDFARFSADYHSHLDSLSKPSEYSDLKWEYQRASSSSPLDYSFQFTPSRTAGTSGCSKESLAYSESEWGPSLDDYDRRPKSSYLNQTSPQPTMRQRSRSGSGLQEPMMPFGASAFKTHPQGHSYNSYTYPRLSEPTMCIPKVDYDRAQMVLSPPLSGSDTYPRGPAKLPQSQSKSGYSSSSHQYPSGYHKATLYHHPSLQSSSQYISTASYLSSLSLSSSTYPPPSWGSSSDQQPSRVSHEQFRAALQLVVSPGDPREYLANFIKIGEGSTGIVCIATEKHTGKQVAVKKMDLRKQQRRELLFNEVVIMRDYHHDNVVDMYSSYLVGDELWVVMEFLEGGALTDIVTHTRMNEEQIATVCLSVLRALSYLHNQGVIHRDIKSDSILLTSDGRIKLSDFGFCAQVSKEVPKRKSLVGTPYWMAPEVISRLPYGTEVDIWSLGIMVIEMIDGEPPYFNEPPLQAMRRIRDSLPPRVKDLHKVSSVLRGFLDLMLVREPSQRATAQELLGHPFLKLAGPPSCIVPLMRQYRHH
partner: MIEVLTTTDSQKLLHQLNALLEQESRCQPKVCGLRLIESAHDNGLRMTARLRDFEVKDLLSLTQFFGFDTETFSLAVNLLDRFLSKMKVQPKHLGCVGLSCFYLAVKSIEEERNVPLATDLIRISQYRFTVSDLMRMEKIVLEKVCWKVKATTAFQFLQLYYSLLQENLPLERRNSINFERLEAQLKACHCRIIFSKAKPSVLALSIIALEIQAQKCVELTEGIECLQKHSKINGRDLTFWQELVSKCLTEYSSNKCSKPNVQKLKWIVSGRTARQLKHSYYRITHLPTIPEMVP

Variants of: B1
Conditions: with epmip_human EPM2AIP1, Q7L775

Row | Variant | effect of a mutation on the interaction
1 | F41L | with no effect
2 | Y106H | with no effect
3 | R104H | disrupting interaction strength
4 | T187A | with no effect

Variants of: B2
Conditions: with gnl3l_human GNL3L

Row | Variant | effect of a mutation on the interaction
5 | L12H | disrupting interaction strength

Variants of: B3
Conditions: with keap1_human KEAP1, Q14145
Sequence of keap1_human KEAP1, Q14145 (Q14145 whole entry): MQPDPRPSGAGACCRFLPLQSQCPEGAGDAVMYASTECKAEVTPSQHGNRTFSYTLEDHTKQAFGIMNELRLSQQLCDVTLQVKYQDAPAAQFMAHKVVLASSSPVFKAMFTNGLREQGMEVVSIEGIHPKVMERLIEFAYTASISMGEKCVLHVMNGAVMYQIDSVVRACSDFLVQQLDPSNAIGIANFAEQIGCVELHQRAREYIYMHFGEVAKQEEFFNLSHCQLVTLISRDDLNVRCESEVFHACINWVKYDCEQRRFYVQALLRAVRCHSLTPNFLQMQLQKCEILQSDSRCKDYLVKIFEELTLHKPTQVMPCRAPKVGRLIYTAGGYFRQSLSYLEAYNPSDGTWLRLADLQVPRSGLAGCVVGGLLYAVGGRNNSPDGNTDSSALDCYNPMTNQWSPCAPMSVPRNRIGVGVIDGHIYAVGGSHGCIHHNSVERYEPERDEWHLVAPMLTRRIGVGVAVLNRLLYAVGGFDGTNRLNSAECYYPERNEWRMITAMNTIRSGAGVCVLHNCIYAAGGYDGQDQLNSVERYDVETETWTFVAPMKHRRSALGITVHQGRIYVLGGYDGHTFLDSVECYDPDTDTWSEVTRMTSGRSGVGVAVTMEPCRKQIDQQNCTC

Row | Variant | effect of a mutation on the interaction
6 | G278S | with no effect
7 | E144Q | with no effect

Variants of: B4
Conditions: with zn471_human ZNF471, Q9BX82
Sequence of zn471_human ZNF471, Q9BX82 (Q9BX82 whole entry): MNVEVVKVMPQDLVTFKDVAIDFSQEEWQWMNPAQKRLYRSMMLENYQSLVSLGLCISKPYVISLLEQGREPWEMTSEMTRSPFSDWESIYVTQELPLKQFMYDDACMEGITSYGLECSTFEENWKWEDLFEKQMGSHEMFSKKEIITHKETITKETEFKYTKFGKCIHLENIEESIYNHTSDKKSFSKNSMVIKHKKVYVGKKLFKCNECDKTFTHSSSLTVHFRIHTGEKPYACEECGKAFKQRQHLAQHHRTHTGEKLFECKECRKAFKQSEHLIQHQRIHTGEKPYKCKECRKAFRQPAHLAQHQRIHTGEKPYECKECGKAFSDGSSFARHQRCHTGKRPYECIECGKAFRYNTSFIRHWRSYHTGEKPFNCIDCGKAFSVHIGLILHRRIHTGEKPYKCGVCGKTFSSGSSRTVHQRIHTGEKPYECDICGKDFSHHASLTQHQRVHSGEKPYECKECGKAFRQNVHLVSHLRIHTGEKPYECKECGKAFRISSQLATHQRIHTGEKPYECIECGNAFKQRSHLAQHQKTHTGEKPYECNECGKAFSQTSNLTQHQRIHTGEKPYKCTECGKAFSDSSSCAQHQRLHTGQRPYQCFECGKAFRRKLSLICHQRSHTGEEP

Row | Variant | effect of a mutation on the interaction
8 | P348S | with no effect

Variants of: B5
Conditions: with ccng1_human CCNG1, P51959

Row | Variant | effect of a mutation on the interaction
9 | S511N | with no effect
10 | V604I | with no effect
11 | R335P | with no effect
